Source: patent US20180312591A1 (ONCOSYNERGY, published 2018)

B1: composite human antibody variant H1 (antibody, V domains shown)
VH: EVQLVQSGAEVKKPGSSVKVSCKASGYTFTGYILSWVRQAPGQGLEWIGWVDPEYGSTDSAEKFKKRVTITADISTSTAYMELSSLRSEDTATYFCTRYYDGYYRRWFAYWGQGTLVTVSS
VL: DIQMTQSPSSLSASVGDRVTITCLASEGISNNLAWYQQKPGKAPKLLIYGAHSLHDGVPDRFSGSGSGTDYTLKISRVEAEDVGVYYCQQGYKYPITFGGGTKVEIK
notes: also called VH5VK3
B2: composite human antibody variant H2 (antibody, V domains shown)
VH: EVQLVQSGAEVKKPGSSVKISCKASGYTFTGYILSWVRQAPGQGLEWIGWVDPEYGSTDSAEKFKKRATLTADISTSTAYIELSSLRSEDTATYFCTRYYDGYYRRWFAYWGQGTLVTVSS
VL: DIQMTQSPSSLSASVGDRVTITCLASEGISNNLAWHQQKPGKAPQLLIYGAHSLHDGVPDRFSGSGSGTDYTLKISGMQPEDEGVYYCQQGYKYPITFGGGTKVEIK
notes: also called VH3VK1
B3: composite human antibody variant H3 (antibody, V domains shown)
VH: EVQLVQSGAEVKKPGSSVKVSCKASGYTFTGYILSWVRQAPGQGLEWIGWVDPEYGSTDSAEKFKKRATITADISTSTAYMELSSLRSEDTATYFCTRYYDGYYRRWFAYWGQGTLVTVSS
VL: DIQMTQSPSSLSASVGDRVTITCLASEGISNNLAWYQQKPGKAPKLLIYGAHSLHDGVPDRFSGSGSGTDFTLKISRVEAEDVGVYYCQQGYKYPITFGGGTKVEIK
notes: also called VH4VK4
B4: composite human antibody variant H4 (antibody, V domains shown)
VH: EVQLVQSGAEVKKPGSSVKVSCKASGYTFTGYILSWVRQAPGQGLEWIGWVDPEYGSTDSAEKFKKRVTITADISTSTAYMELSSLRSEDTATYFCTRYYDGYYRRWFAYWGQGTLVTVSS
VL: DIQMTQSPSSLSASVGDRVTITCLASEGISNNLAWYQQKPGKAPKLLIYGAHSLHDGVPDRFSGSGSGTDFTLKISRVEAEDVGVYYCQQGYKYPITFGGGTKVEIK
notes: also called VH5VK4
B5: composite human antibody variant H5 (antibody, V domains shown)
VH: EVQLVQSGAEVKKPGSSVKVSCKASGYTFTGYILSWVRQAPGQGLEWIGWVDPEYGSTDSAEKFKKRVTITADISTSTAYMELSSLRSEDTATYFCTRYYDGYYRRWFAYWGQGTLVTVSS
VL: DIQMTQSPSSLSASVGDRVTITCLASEGISNNLAWHQQKPGKAPKLLIYGAHSLHDGVPDRFSGSGSGTDYTLKISRVEAEDVGVYYCQQGYKYPITFGGGTKVEIK
notes: also called VH5VK2
B6: composite human antibody variant H6 (antibody, V domains shown)
VH: EVQLVQSGAEVKKPGSSVKVSCKASGYTFTGYILSWVRQAPGQGLEWIGWVDPEYGSTDSAEKFKKRVTITADISTSTAYMELSSLRSEDTATYFCTRYYDGYYRRWFAYWGQGTLVTVSS
VL: DIQMTQSPSSLSASVGDRVTITCLASEGISNNLAWHQQKPGKAPQLLIYGAHSLHDGVPDRFSGSGSGTDYTLKISGMQPEDEGVYYCQQGYKYPITFGGGTKVEIK
notes: also called VH5VK1
B7: composite human antibody variant H8 (antibody, V domains shown)
VH: EVQLVQSGAEVKKPGSSVKVSCKASGYTFTGYILSWVRQAPGQGLEWIGWVDPEYGSTDSAEKFKKRATITADISTSTAYMELSSLRSEDTATYFCTRYYDGYYRRWFAYWGQGTLVTVSS
VL: DIQMTQSPSSLSASVGDRVTITCLASEGISNNLAWHQQKPGKAPKLLIYGAHSLHDGVPDRFSGSGSGTDYTLKISRVEAEDVGVYYCQQGYKYPITFGGGTKVEIK
notes: also called VH4VK2
B8: composite human antibody variant H10 (antibody, V domains shown)
VH: EVQLVQSGAEVKKPGSSVKISCKASGYTFTGYILSWVRQAPGQGLEWIGWVDPEYGSTDSAEKFKKRATLTADISTSTAYIELSSLRSEDTATYFCTRYYDGYYRRWFAYWGQGTLVTVSS
VL: DIQMTQSPSSLSASVGDRVTITCLASEGISNNLAWYQQKPGKAPKLLIYGAHSLHDGVPDRFSGSGSGTDFTLKISRVEAEDVGVYYCQQGYKYPITFGGGTKVEIK
notes: also called VH3VK4
B9: composite human antibody variant H11 (antibody, V domains shown)
VH: EVQLVQSGAEVKKPGSSVKISCKASGYTFTGYILSWVRQAPGQGLEWIGWVDPEYGSTDSAEKFKKRATLTADISTSTAYIELSSLRSEDTATYFCTRYYDGYYRRWFAYWGQGTLVTVSS
VL: DIQMTQSPSSLSASVGDRVTITCLASEGISNNLAWYQQKPGKAPKLLIYGAHSLHDGVPDRFSGSGSGTDYTLKISRVEAEDVGVYYCQQGYKYPITFGGGTKVEIK
notes: also called VH3VK3
B10: composite human antibody variant H13 (antibody, V domains shown)
VH: EVQLVQSGAEVKKPGSSVKISCKASGYTFTGYILSWVRQAPGQGLEWIGWVDPEYGSTDSAEKFKKRATLTADISTNTAYIELSSLRSEDTATYFCTRYYDGYYRRWFAYWGQGTLVTVSS
VL: DIQMTQSPSSLSASVGDRVTITCLASEGISNNLAWYQQKPGKAPKLLIYGAHSLHDGVPDRFSGSGSGTDFTLKISRVEAEDVGVYYCQQGYKYPITFGGGTKVEIK
notes: also called VH2VK4
B11: composite human antibody variant H15 (antibody, V domains shown)
VH: EVQLVQSGAEVKKPGSSVKISCKASGYTFTGYILSWVRQAPGQGLEWIGWVDPEYGSTDSAEKFKKRATLTADISTNTAYIELSSLRSEDTATYFCTRYYDGYYRRWFAYWGQGTLVTVSS
VL: DIQMTQSPSSLSASVGDRVTITCLASEGISNNLAWHQQKPGKAPKLLIYGAHSLHDGVPDRFSGSGSGTDYTLKISRVEAEDVGVYYCQQGYKYPITFGGGTKVEIK
notes: also called VH2VK2
B12: composite human antibody variant H19 (antibody, V domains shown)
VH: EVQLVQSGPEVKKPGSSVKISCKASGYTFTGYILSWVKQAPGQGLEWIGWVDPEYGSTDSAEKFKKRATLTADISTNTAYIQLSSLRSEDTATYFCTRYYDGYYRRWFAYWGQGTLVTVSS
VL: DIQMTQSPSSLSASVGDRVTITCLASEGISNNLAWHQQKPGKAPQLLIYGAHSLHDGVPDRFSGSGSGTDYTLKISGMQPEDEGVYYCQQGYKYPITFGGGTKVEIK
notes: also called VH1VK1

Biological target: T1, human integrin β1 (human, UniProt P05556 21-798)
T1 construct: whole, on cells; the antibodies are described as anti-human integrin β1; also called CD29; ITGB1
Test: competition FACS on Jurkat cells; competitor murine OS2966 (0.1875 µg/ml)
Experimental: Binding of composite human antibody variants (from Table 2) was assessed in a competition FACS assay with the OS2966 murine chimeric antibody (murine OS2966 Fab sliced to human Fc). In brief, a dilution series (three-fold) of chimeric or humanized antibodies starting from 25.0 μg/ml was premixed with a constant concentration of murine OS2966 (0.1875 μg/ml) in FACS buffer (1% BSA in 1×PBS pH 7.4) before mixing with 3×10⁵ Jurkat cells. […] After incubating on ice for 45 min, cells were washed, resuspended in 300 μl FACS buffer and analyzed on a Beckton Dickinson FACScalibur™. The geometric mean fluorescence intensity was plotted against antibody concentration (FIGS. 20-24).

Binder | relative IC50 (IC50 of test antibody / IC50 of chimeric antibody)
B1 | 0.88 ratio to chimeric antibody
B2 | 0.97 ratio to chimeric antibody
B3 | 2.7 ratio to chimeric antibody
B4 | 3.26 ratio to chimeric antibody
B5 | 0.85 ratio to chimeric antibody
B6 | 1.24 ratio to chimeric antibody
B7 | 1.18 ratio to chimeric antibody
B8 | 2.76 ratio to chimeric antibody
B9 | 1.58 ratio to chimeric antibody
B10 | 2 ratio to chimeric antibody
B11 | 1.32 ratio to chimeric antibody
B12 | 1.13 ratio to chimeric antibody
